In PMC11419269:

Legend:
[1] = target: oAβ42 Aβ42 (Homo sapiens) (UniProt P05067); settings: cited from earlier work
C1q (Homo sapiens) = C1q (Homo sapiens) (UniProt P02745); experiment: ELISA; settings: cited from earlier work
TREM2 F74D (human) = TREM2 F74D (human) (UniProt Q9NZC2); experiment: BLI; biotinylated TREM2 WT and variants immobilised on SA biosensors; C1q 62.5 – 1000 nM in PBS with 0.1% BSA and 0.005% Tween-20; 1:1 kinetic fits
TREM2 L71D (human) = TREM2 L71D (human) (UniProt Q9NZC2); experiment: as above
TREM2 M41D (human) = TREM2 M41D (human) (UniProt Q9NZC2); experiment: as above
TREM2 R47H (human) = TREM2 R47H (human) (UniProt Q9NZC2); experiment: as above
TREM2 R62H (human) = TREM2 R62H (human) (UniProt Q9NZC2); experiment: as above
TREM2 WT (human) [2] = target: TREM2 WT (human) (UniProt Q9NZC2); experiment: as above
TREM2 WT (human) [3] = target: TREM2 WT (human) (UniProt Q9NZC2); experiment: BLI; sequential competition: biotinylated TREM2 WT on SA biosensors, first ligand or no ligand at one concentration (500 nM apoE2, apoE4, oAβ42 or IL-34; 1000 nM C1q), buffer, then second ligand

Sequence of TREM2 (Q9NZC2 19-174): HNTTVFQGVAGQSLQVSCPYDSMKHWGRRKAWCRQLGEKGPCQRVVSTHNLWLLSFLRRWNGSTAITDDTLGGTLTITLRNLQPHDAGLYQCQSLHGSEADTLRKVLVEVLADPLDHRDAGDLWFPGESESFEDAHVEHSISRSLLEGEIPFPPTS
Sequence of TREM2 WT (human) (Q9NZC2 19-174): as above
Sequence of TREM2 L71D (human) (Q9NZC2 19-230 L71D): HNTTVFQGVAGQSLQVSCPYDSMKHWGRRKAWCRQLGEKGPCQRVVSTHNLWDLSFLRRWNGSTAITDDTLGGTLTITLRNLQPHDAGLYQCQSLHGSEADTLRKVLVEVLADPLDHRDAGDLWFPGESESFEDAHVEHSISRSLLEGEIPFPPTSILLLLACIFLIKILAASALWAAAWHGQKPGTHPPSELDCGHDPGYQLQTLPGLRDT
Sequence of TREM2 R62H (human) (Q9NZC2 19-174 R62H): as the sequence (Q9NZC2 19-174) above, with R44H counted along it
Sequence of C1q (Homo sapiens) (P02745 23-245, chain 1 of 3): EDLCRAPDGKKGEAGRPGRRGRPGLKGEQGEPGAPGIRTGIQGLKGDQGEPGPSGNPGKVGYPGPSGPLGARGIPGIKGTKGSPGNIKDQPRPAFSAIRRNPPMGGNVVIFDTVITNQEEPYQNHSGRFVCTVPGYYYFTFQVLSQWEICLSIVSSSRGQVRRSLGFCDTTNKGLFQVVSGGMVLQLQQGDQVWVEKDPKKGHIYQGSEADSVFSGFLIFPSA
Sequence of C1q (Homo sapiens) (P02746 28-253, chain 2 of 3, further chain): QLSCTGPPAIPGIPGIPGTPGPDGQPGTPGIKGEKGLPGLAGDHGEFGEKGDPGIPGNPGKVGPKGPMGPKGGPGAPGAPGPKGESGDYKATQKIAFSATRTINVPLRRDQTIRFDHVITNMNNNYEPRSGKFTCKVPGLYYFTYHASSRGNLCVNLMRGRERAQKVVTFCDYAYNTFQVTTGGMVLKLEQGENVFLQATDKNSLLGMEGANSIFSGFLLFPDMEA
Sequence of C1q (Homo sapiens) (P02747 29-245, chain 3 of 3, further chain): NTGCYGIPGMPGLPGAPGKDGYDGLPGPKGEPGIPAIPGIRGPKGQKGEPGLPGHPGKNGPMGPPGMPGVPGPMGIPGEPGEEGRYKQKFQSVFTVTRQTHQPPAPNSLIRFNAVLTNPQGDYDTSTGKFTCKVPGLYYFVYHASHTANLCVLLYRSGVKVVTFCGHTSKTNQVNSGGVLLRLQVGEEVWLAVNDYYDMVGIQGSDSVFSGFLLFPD
Sequence of TREM2 M41D (human) (Q9NZC2 19-230 M41D): as the sequence (Q9NZC2 19-230 L71D) above, with M23D, D53L counted along it
Sequence of TREM2 F74D (human) (Q9NZC2 19-230 F74D): as the sequence (Q9NZC2 19-230 L71D) above, with D53L, F56D counted along it
Sequence of TREM2 R47H (human) (Q9NZC2 19-174 R47H): as the sequence (Q9NZC2 19-174) above, with R29H counted along it

Row | Substance | Kd [1] [nM] | Kd (C1q (Homo sapiens)) [nM] | Kd (TREM2 F74D (human)) [nM] | Kd (TREM2 L71D (human)) [nM] | Kd (TREM2 M41D (human)) [nM] | Kd (TREM2 R47H (human)) [nM] | Kd (TREM2 R62H (human)) [nM] | Kd (TREM2 WT (human) [2]) [nM] | percent decrease of apoE2 binding to TREM2 after pre-binding 1000 nM C1q (TREM2 WT (human) [3]) [%]
1 | TREM2 (from UniProt Q9NZC2) | 526 | 7.35 |  |  |  |  |  |  | 
2 | complement C1q (complex) |  |  | 110 | 58 | 2540 | 180 | 1660 | 650 | 11.4
